Details in all cases: both partners purified
Assay [1] has as its target T1, FtsZ from Pseudomonas aeruginosa (P. aeruginosa, UniProt P47204 1-394).
T1 construct: FtsZ, Pseudomonas aeruginosa; cloned in pET15b at NdeI/BamHI; Forms protofilaments and bundles with GTP; also called PaFtsZ; source: E. coli BL21 (pET15b), purified (Talon column, thrombin, source Q 10/10)
T1 sequence (looked up): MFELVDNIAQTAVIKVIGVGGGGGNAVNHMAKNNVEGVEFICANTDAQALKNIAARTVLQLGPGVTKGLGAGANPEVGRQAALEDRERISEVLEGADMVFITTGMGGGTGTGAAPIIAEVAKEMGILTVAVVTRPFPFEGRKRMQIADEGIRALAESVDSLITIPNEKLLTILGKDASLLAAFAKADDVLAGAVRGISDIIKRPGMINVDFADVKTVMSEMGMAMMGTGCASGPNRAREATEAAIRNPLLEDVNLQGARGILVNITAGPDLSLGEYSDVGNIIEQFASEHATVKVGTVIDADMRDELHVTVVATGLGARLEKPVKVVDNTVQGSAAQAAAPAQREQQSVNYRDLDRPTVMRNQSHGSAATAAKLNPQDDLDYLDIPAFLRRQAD
Briefly: negative stain electron microscopy; HMK buffer (50 mM HEPES, 100 mM KAc, 5 mM MgAc, pH 7.5), GTP, 1-5 min at room temperature; 3 or 5 µM PaFtsZ alone, or 5 µM PaFtsZ with 10 µM ZipA or ZapA.

In assay [2] the target is T2, EcFtsZ-F268C labeled with fluorescein (donor) or tetramethylrhodamine (acceptor) (E. coli, UniProt P0A9A6 1-383, F268C, single cysteine labeled separately with Fluorescein 5-maleimide (donor) or Tetramethylrhodamine 5-maleimide (acceptor)).
T2 construct: FtsZ, Escherichia coli, single cysteine mutant F268C (printed as L268C in the results); in pET11b; also called EcFtsZ-L268C; source: bacterially expressed (pET11b), purified (30% ammonium sulfate, source Q 10/10)
T2 sequence (looked up): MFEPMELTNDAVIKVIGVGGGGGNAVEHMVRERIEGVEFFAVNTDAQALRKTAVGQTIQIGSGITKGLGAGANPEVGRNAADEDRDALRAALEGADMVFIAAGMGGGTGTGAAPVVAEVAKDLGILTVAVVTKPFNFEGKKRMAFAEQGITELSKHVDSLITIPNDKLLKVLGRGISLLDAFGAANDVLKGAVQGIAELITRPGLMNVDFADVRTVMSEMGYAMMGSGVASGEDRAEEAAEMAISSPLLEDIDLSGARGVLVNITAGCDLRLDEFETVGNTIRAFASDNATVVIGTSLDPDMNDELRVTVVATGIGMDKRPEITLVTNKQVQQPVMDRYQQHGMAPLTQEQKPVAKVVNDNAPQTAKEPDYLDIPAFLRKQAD
Briefly: FRET or BRET; HMK buffer; donor- and acceptor-labeled EcFtsZ-F268C polymerized separately for 5 min, alone or with 10 µM ZipA or ZapA, then mixed; decrease of donor fluorescence, single exponential fit; 7 µM EcFtsZ; subunit exchange at steady state.

The target of assay [3] is T3, FtsZ from Escherichia coli (E. coli, UniProt P0A9A6 1-383).
T3 construct: FtsZ, Escherichia coli, wild type; in pET11b; also called EcFtsZ; wild type FtsZ; source: bacterially expressed (pET11b), purified (30% ammonium sulfate, source Q 10/10)
T3 sequence (looked up): T2 sequence (looked up) with C268F
Briefly: light scattering; HMK buffer, room temperature, 340 nm; 7 µM EcFtsZ plus 10 µM EcZapA.

Assay [4] has as its target T3, FtsZ from Escherichia coli. Briefly: Bodipy fluorescence quenching assay of assembly; HMK buffer, room temperature; 7 µM EcFtsZ (less than 10% Bodipy labeled T151C/Y222W with wild type), alone or with 10 µM ZapA or ZipA.
Assay [5] concerns the target T1, FtsZ from Pseudomonas aeruginosa. As to the kind of experiment: negative stain electron microscopy; MMK buffer (50 mM MES, 100 mM KAc, 5 mM MgAc, pH 6.5), GTP, 1-5 min at room temperature; 5 µM PaFtsZ alone, or with 10 µM ZipA or ZapA.

Where a chain is given by its changes, count along the chain named. Names may count otherwise.

B1: ZapA from Pseudomonas aeruginosa (natural protein, P. aeruginosa, UniProt Q9HTW3 1-104, looked up)
chain: MSQSNTLTVQILDKEYCINCPDDERANLESAARYLDGKMREIRSSGKVIGADRVAVMAALNITHDLLHRKERLDQESSSTRERVRELLDRVDRALANPADAGEA
notes: ZapA, Pseudomonas aeruginosa; cloned in pET15b at NdeI/BamHI; Removal of the His tag is told only for PaFtsZ; also called PaZapA; source: E. coli BL21 (pET15b), purified (Talon column)
With B1, the binding result in assay [1] was “binds”.

B2: ZapA from Escherichia coli (natural protein, E. coli, UniProt P0ADS2 1-109, looked up)
chain: MSAQPVDIQIFGRSLRVNCPPDQRDALNQAADDLNQRLQDLKERTRVTNTEQLVFIAALNISYELAQEKAKTRDYAASMEQRIRMLQQTIEQALLEQGRITEKTNQNFE
notes: ZapA, Escherichia coli; cloned in pET15b at NdeI/BamHI; Removal of the His tag is told only for PaFtsZ; also called EcZapA; source: E. coli BL21 (pET15b), purified (Talon column)
In the case of B2, the binding result in assay [2] and in assay [3] was “binds” throughout.

B3: EcFtsZ-T151C/Y222W labeled with Bodipy at Cys151 (natural protein, E. coli, UniProt P0A9A6 1-383, looked up)
chain: T2 sequence (looked up) with T151C, Y222W, C268F
modifications: Bodipy-FL N-(2-aminoethyl)maleimide on Cys 151
notes: FtsZ, Escherichia coli, double mutant T151C/Y222W; in pET11b; Used mixed with a ninefold excess of unlabeled wild-type EcFtsZ; also called Bodipy labeled FtsZ; labeled EcFtsZ; source: bacterially expressed (pET11b), purified (30% ammonium sulfate, source Q 10/10)
With B3, in assay [4], the binding result is listed as “binds”.

B4: N-terminal truncated PaZipA (26-289) (domain or fragment, P. aeruginosa, UniProt Q9I3I5 26-289, looked up)
chain: RRMRGGKGKLKFKLDRSFANLPDDDGDSAELLGPARVVEHREPSFDEQDLPSVSAREAKERKGGKRQEEPRQGDLDLDEGLALEADPSDAAETVEPRKGKSKGRKEKEREKAPAVAAEPAPVDEVLIINVIARDESGFKGPALLQNILESGLRFGDMDIFHRHESMAGNGEILFSMANAVKPGTFDLDDIDNFSTRAVSFFLGLPGPRHPKQAFDVMVAAARKLAHELNGELKDEQRSVLTAQTIEHYRQRIIDHERRSLMQKR
notes: ZipA, Pseudomonas aeruginosa, residues 26-289; N-terminally truncated to remove the transmembrane domain; Removal of the His tag is told only for PaFtsZ; also called ZipA from Pseudomonas aeruginosa; source: E. coli BL21 (pET15b), purified (Talon column)
As to B4, in assay [5], the binding result is recorded as “binds”.

The values above are taken from publication PMC7721900, “Assembly properties of bacterial tubulin homolog FtsZ regulated by the positive regulator protein ZipA and ZapA from Pseudomonas aeruginosa” (Scientific Reports, 2020).
